The source of these data is US20130344053A1, “Methods of Modifying Insulin Signaling Using Biliverdin Reductase (BVR) and BVR Derived Peptides” (University of Rochester, priority 2010, published 2013).

Substitutions are numbered along the chain they refer to.

Holding throughout (type): biochemical
For experiment [1], the target named is T1, insulin receptor kinase (IRK) (Homo sapiens, UniProt P06213).
T1 construct: GST-hBVR fusion protein and the 48 kDa cytoplasmic domain of the β-subunit of IRK; purchased Biomol International (Plymouth, Pa.)
T1 sequence (P06213 980-1382 limits assumed): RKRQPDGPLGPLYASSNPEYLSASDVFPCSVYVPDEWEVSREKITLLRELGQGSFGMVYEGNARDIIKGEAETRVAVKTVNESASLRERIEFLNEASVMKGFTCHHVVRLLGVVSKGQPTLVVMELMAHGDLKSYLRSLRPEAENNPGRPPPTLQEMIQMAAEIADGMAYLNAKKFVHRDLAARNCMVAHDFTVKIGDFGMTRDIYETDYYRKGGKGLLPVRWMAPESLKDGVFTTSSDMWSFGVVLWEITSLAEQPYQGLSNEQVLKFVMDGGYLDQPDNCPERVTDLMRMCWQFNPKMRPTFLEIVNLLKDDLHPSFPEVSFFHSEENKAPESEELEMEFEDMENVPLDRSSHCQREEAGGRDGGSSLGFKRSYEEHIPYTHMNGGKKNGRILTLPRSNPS
Kind of experiment: BVR phosphorylation by the insulin receptor tyrosine kinase (IRK). To be noted: for reduction of extent of BVR phosphorylation by IRK compared with wtBVR: tyrosine point mutant as IRK substrate, 2 h at 30° C.; for BVR phosphorylation by IRK (mutant as substrate): tyrosine point or double mutant as IRK substrate. As for the experimental part:
FIGS. 7A-B illustrate BVR as a substrate for insulin receptor kinase. […] 10 μg purified wtBVR was incubated in 100 μl kinase assay buffer (pH 8.0) containing 0.1 μg IRK, 10 μM ATP, and 20 μCi [^32P]-ATP at 25° C. up to 4 h. The reaction was terminated by the addition of Laemmli buffer at different points of time as indicated. Samples were separated using 8% SDS-PAGE gel and transferred onto PVDF filter, and phosphorylated protein bands were visualized by autoradiography. […] From left to right lane 1, wtBVR plus IRK in the presence of 50 mM EDTA (pH 8.0); lane 2, wtBVR plus IRK; lane 3, wtBVR in the absence of IRK. The reaction mixtures were subjected to SDS-PAGE electrophoresis and transferred onto a polyvinylidene fluoride (“PVDF”) filter. The blot was immuno-stained with anti-phosphotyrosine antibodies and ECL detection system was used to visualize phosphorylated tyrosines. […] In FIG. 8A the Y^198 residue of BVR is phosphorylated by IRK. Purified wtBVR and Y^198 mutant BVR were incubated with IRK at 30° C. for 2 h. Samples were subjected to SDS-PAGE electrophoresis and processed as described in FIG. 8B. FIG. 8B is a time course of Y^198 mutant BVR phosphorylation by IRK. A purified preparation of human BVR that carried Y^198 mutation was incubated with IRK for up to 3 h as described in FIG. 7A. Samples taken at the indicated time-points were analyzed for detection of phosphorylated proteins as above. […] Subsequently, samples were subjected to SDS-PAGE, stained with Coomassie blue and visualized bands were excised and used for measurement of radioactive content. The experiments were repeated three times. […] The indicated double mutants of BVR were used as substrates for IRK and analysis was carried out as in FIG. 8A. FIGS. 10A-B illustrate that autophosphorylation of BVR is an Mn^+2 dependant kinase reaction. […] The effects of different metal ions (30 mM MnCl2, 20 mM MgCl2, 20 mM CaCl2, 20 mM Zn acetate) and their combinations were analyzed as indicated in the text. […] The reactions were carried out in HEPES buffer (pH 8.0) in the presence of 20 mM MgCl2 as described in the Examples. Phosphorylation of BVR by IRK was examined using GST-hBVR fusion protein and the 48 kDa cytoplasmic domain of the β-subunit of IRK. BVR (5 μg) was incubated in 50 μl of IRK kinase buffer containing 50 mM HEPES (pH 8.0), 20 mM MgCl2, 1 mM DTT in the presence of 0.05 μg IRK and 10 μM ATP labeled with 10 μCi [γ-^32P]-ATP. The reaction was started with the addition of labeled ATP and incubated for 2-4 h. Reactions were terminated by addition of Laemmli sample buffer and boiled for 3 min. Samples were subjected to 8% SDS-PAGE and transferred to PVDF membranes for autoradiography.

For a further experiment, the target named is T2, BVR (Homo sapiens, UniProt P53004, A154S/E160D/G155D).
T2 construct: made in house; host or cells: E. coli (pGEX 4T-2/hBVR)
T2 sequence (P53004 3-296 A154S/G155D/E160D): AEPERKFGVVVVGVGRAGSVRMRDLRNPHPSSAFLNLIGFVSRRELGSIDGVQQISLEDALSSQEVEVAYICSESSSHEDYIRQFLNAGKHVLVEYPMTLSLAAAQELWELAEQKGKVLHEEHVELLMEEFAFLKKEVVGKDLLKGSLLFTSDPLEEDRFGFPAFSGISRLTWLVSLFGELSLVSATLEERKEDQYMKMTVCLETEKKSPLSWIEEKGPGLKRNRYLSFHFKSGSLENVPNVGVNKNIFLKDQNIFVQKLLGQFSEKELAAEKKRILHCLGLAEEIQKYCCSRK
Kind of experiment: Phosphorylation of IRS-1 peptides by BVR. To be noted: peptide as substrate for BVR kinase. Here is the method: (§1) To detect autophosphorylation of BVR, GST-hBVR of wild type (wt) and mutant variants were incubated in 50 mM HEPES buffer (pH 8.4) in the presence of 30 mM MnCl2 and 1 mM DTT for 2 h at 30° C. The reaction was started with the addition of 10 μM ATP labeled with 10 μCi [γ-^32P]-ATP and was stopped with the addition of Laemmli sample buffer. Samples were boiled for 3 min and applied to a 8% SDS-PAGE gels, transferred to a PVDF membrane, and then visualized by autoradiography. To measure kinase activity, GST-BVR (5 μg) was incubated in 5 μl kinase buffer containing 50 mM HEPES buffer (pH 8.4), 20 mM MgCl2, 30 mM MnCl2, 1 mM DTT and 10 μM ATP labeled with 10 μCi [γ-^32P]-ATP in the presence of 5 μg substrates: IRS-1 or Raytide or poly glu/tyr (4:1) for 2 h at 30° C. The reaction was started with the addition of ATP and terminated by adding 120 μl 10% H3PO4. 100 μl aliquots were directly transferred to P81 Whatman filters which were subsequently washed extensively in 0.75% phosphoric acid at room temperature. Finally, the filters were submerged in acetone for 5 min, dried, and retained counts were measured using a Beckman LS 6500 liquid scintillation counter (Beckman Coulter, Fullerton, Calif.).
The following experiments were conducted to determine whether IRS is a substrate for serine kinase activity of BVR or its tyrosine kinase activity. […]

Another experiment deals with human BVR. Kind of experiment: BVR autophosphorylation. As to conditions: pH 8.4, 30 mM MnCl2, 2 h at 30° C. As for the experimental part:
In FIG. 9A, effect of tyrosine mutations of BVR on its autophosphorylation is shown. Human wtBVR and BVR with mutations in tyrosine were used in the experiment to determine autophosphorylation of BVR. The reactions were performed as described in the Examples. FIG. 9B is a graph showing that BVR tyrosine kinase activity was checked by incubating 5 μg purified BVR with 5 μg Raytide in 50 μl kinase buffer containing 10 μM labeled ATP for 2 h at 30° C. The aliquots of the reaction were transferred onto P81 Whatman filters and radioactivity due to phosphorylation was measured using a scintillation counter.
FIGS. 10A-B illustrate that autophosphorylation of BVR is an Mn^+2 dependant kinase reaction. […] The effects of different metal ions (30 mM MnCl2, 20 mM MgCl2, 20 mM CaCl2, 20 mM Zn acetate) and their combinations were analyzed as indicated in the text. […] Phosphorylation of wtBVR by IRK in the presence of tyrosine kinase inhibitor genestein (200 μM); DMSO was used as the vehicle for genestein and was included in the control reaction mixture. The reactions were carried out in HEPES buffer (pH 8.0) in the presence of 20 mM MgCl2 as described in the Examples.
as §1, with “To measure kinase activity, GST-BVR (5 μg) was incubated in 5 μl kinase buffer containing 50 mM HEPES buffer (pH 8.4), 20 mM MgCl2, 30 mM MnCl2, 1 mM DTT and 10 μM ATP labeled with 10 μCi [γ-^32P]-ATP in the presence of 5 μg substrates: IRS-1 or Raytide or poly glu/tyr (4:1) for 2 h at 30° C.” left out

Turning to `O=c1c(-c2ccc(O)cc2)coc2cc(O)cc(O)c12` [Genestein, reference compound], the “BVR phosphorylation mediated by IRK in presence of PTK inhibitor” value in experiment [1] (genestein 200 μM, HEPES pH 8.0, 20 mM MgCl2) is reported as “significantly inhibited BVR phosphorylation mediated by IRK”.
Consider “Arg-Thr-Glu-Ser^307-Ile-Thr-Ala-Thr-Ser^312-Pro-Ala-Ser^315-Met-Val-Gly-Gly-Lys-Pro (RTESITATSPASMVGGKP; Biliverdin reductase peptide) [second IRS-1 peptide (#2), IRS-1 peptide containing S^307, S^312, and S^315]”, for which the “phosphorylation of IRS-1 peptide by BVR” value in the experiment with BVR is listed as 1198±230 cpm.
Turning to `O=C(O)CN(CCN(CC(=O)O)CC(=O)O)CC(=O)O` [EDTA, reference compound], in experiment [1] (50 mM EDTA (pH 8.0), 30° C., 2 h), the “phosphorylation of BVR by IRK in presence of EDTA” value is on record as “abolished phosphorylation of BVR by IRK”.
On to “Lys-Lys-His-Ala-Asp-Asp-Gly-Ala-Met-Pro-Met-Ser^312-Pro-Gly-Val-Ala (KKHADDGAMPMSPGVA; Biliverdin reductase peptide) [mutant IRS-1 peptide (#1), mutant IRS-1 peptide without tyrosine, only S^616 maintained]”, for which the “phosphorylation of IRS-1 peptide by BVR” value in the experiment with BVR worked out at 1049±78 cpm.

B1: Y^228: human BVR point mutant NRYLS to NRFLS (protein, UniProt P53004 3-296, looked up, variant Y228F)
Biliverdin reductase A: T2 sequence (P53004 3-296 A154S/G155D/E160D) with S152A, D153G, D158E, Y226F
B1: the “reduction of extent of BVR phosphorylation by IRK compared with wtBVR” value in experiment [1] amounted to 40%. Moreover, the “autophosphorylation of BVR (mutants)” value in the experiment on human BVR was “did not result in significant changes in autophosphorylation of BVR”.

B2: Y^198 plus Y^228: human BVR double mutant DQFMK and NRFLS (protein, UniProt P53004 3-296, looked up, variant Y198F Y228F)
Biliverdin reductase A: T2 sequence (P53004 3-296 A154S/G155D/E160D) with S152A, D153G, D158E, Y196F, Y226F
For B2, the “BVR phosphorylation by IRK (mutant as substrate)” value in experiment [1] is on record as “little or no phosphorylation was detected”.

B3: Y^291: human BVR point mutant QKYCC to QKFCC (protein, UniProt P53004 3-296, looked up, variant Y291F)
Biliverdin reductase A: T2 sequence (P53004 3-296 A154S/G155D/E160D) with S152A, D153G, D158E, Y289F
With B3, the “reduction of extent of BVR phosphorylation by IRK compared with wtBVR” value in experiment [1] is 49%. Further, the “autophosphorylation of BVR (mutants)” value with human BVR was “did not result in significant changes in autophosphorylation of BVR”.

B4: Y^198 plus Y^291: human BVR double mutant DQFMK and QKFCC (protein, UniProt P53004 3-296, looked up, variant Y198F Y291F)
Biliverdin reductase A: T2 sequence (P53004 3-296 A154S/G155D/E160D) with S152A, D153G, D158E, Y196F, Y289F
In the case of B4, in experiment [1], the “BVR phosphorylation by IRK (mutant as substrate)” value was “little or no phosphorylation was detected”.
